How the values were obtained:
[1] = target: the molecule itself; assay: SEC + other: glycerol gradient sedimentation; Superdex 200 Increase 3.2/300 (Stoke's radius 62.77 Å) and 20%-40% glycerol gradient in LFB1/100 (5.105 S), combined by the Siegel-Monty method; apparent molecular size; monomer to dimer
[2] = target: the molecule itself; assay: SEC; Superdex 200 Increase 3.2/300, 20 μl/min; TRAIP-wt and CDK1/Cyclin B-phosphorylated TRAIP-wt loaded one at a time; fractions blotted with TRAIP antibodies

Protein	stoichiometry N [1]	binding result [2]
His6-SUMO-tagged X. laevis TRAIP-wt (enzyme, UniProt Q6NRV0 1-464, looked up, TRAIP ubiquitin ligase, Xenopus laevis, wild type; SUMO-TRAIP is said to be 65 kDa; also called His6-SUMO-TRAIP-wt; His-SUMO-TRAIP; source: E. coli Rosetta (DE3) pLysS, pCA528 vector, purified (Ni-NTA; Mono Q for the gel filtration); not shown: His6, N-terminal, kept; SUMO, N-terminal, kept) MPIRAYCTICSDFFDNARDVAAITCGHTFHQECLLQWFHSAPHRTCPQCRIQVSSRQIINKLFFDIGGEEETVLDAESLKNEVDRIKASLLVKEKEKRECQGLVDSLREMLDVRNVTIQSQQKELGDMEMLCSTLKKQIKFLDKQQSETKAAKDEARKLRNKLKTMESIEVLLQSQRSEVEEMIRDMGSGQAAVEQLAIYCVSLKKEYENLKEVRKSSAEMTEKLRKELFSSNHKAQKAELELTKVREELSASQKELHSADKEIMSLKKKVEFLQKTLTTPTASNEAISRLIFESPAPIGLERPKLRPPMMGNDINLDVTFDIDTPEHNTQKSVVAPFKKMKFDNKEHPLSSPTKNPLQESKGLMSWAGGRTGADEDDDLTLPSFIKNSLLHKKPVGSLLGLRQNTGAVRTGFDGLGGRTKFIQPSNLTEIRPLHQKMKRKKVSRPTACTSSLANQPRLEDFLK	2	
phosphorylated His6-SUMO-TRAIP-wt (in vitro phosphorylated with CDK1/Cyclin B) (enzyme, X. laevis, UniProt Q6NRV0 1-464, looked up, phosphorylated in vitro by CDK1/Cyclin B; mutation of T280, S295 and S352 to alanine (TRAIP-3A) abolishes this phosphorylation, TRAIP ubiquitin ligase, Xenopus laevis, wild type, as m1; the sites phosphorylated in vitro were not mapped one by one; T325 is discussed as a possible fourth site; also called phosphorylated TRAIP-wt; phosphorylated TRAIP; source: E. coli Rosetta (DE3) pLysS, purified (Ni-NTA, Mono Q), then phosphorylated in vitro with CDK1/Cyclin B; not shown: His6, N-terminal, kept; SUMO, N-terminal, kept) MPIRAYCTICSDFFDNARDVAAITCGHTFHQECLLQWFHSAPHRTCPQCRIQVSSRQIINKLFFDIGGEEETVLDAESLKNEVDRIKASLLVKEKEKRECQGLVDSLREMLDVRNVTIQSQQKELGDMEMLCSTLKKQIKFLDKQQSETKAAKDEARKLRNKLKTMESIEVLLQSQRSEVEEMIRDMGSGQAAVEQLAIYCVSLKKEYENLKEVRKSSAEMTEKLRKELFSSNHKAQKAELELTKVREELSASQKELHSADKEIMSLKKKVEFLQKTLTTPTASNEAISRLIFESPAPIGLERPKLRPPMMGNDINLDVTFDIDTPEHNTQKSVVAPFKKMKFDNKEHPLSSPTKNPLQESKGLMSWAGGRTGADEDDDLTLPSFIKNSLLHKKPVGSLLGLRQNTGAVRTGFDGLGGRTKFIQPSNLTEIRPLHQKMKRKKVSRPTACTSSLANQPRLEDFLK		binds
